In PMC2629775:

Experiments:
[1] = biological target: Mycobacterium leprae small heat shock protein (sHsp18) (Mycobacterium leprae); test: SEC; as a1 but after extended dialysis against PBS; data not shown
[2] = biological target: Mycobacterium leprae small heat shock protein (sHsp18) (Mycobacterium leprae); test: SEC; Sephacryl column; sHsp18 purified by denaturing method, dialysed against 50 mM PBS with 200 mM NaCl, pH 7.2, 4°C, 6 hrs, acetone precipitated, resuspended in PBS
[3] = biological target: Mycobacterium leprae small heat shock protein (sHsp18) (Mycobacterium leprae); test: native gel or EMSA; non-denaturing 7.5% polyacrylamide gel of MagneHis-purified sHsp18, against high molecular weight markers, Coomassie stain

stoichiometry N [1]: 9 | stoichiometry N [2]: 6 | stoichiometry N [3]: 9
Substance: Mycobacterium leprae small heat shock protein (sHsp18) (natural protein)
